In patent US20220175942A1 (OXFORD UNIVERSITY INNOVATION, published 2022):

B1: CCL17_HUMAN (ligand)
chain: ARGTNVGRECCLEYFKGAIPLRKLKTWYQTSEDCSRDAIVFVTVQGRAICSDPNNKRVKNAVKYLQSLERS
notes: Biotinylated (detected with streptavidin-Alexa647) in yeast display; AlexaFluor 647 labelled (Almac) in thermophoresis
B2: CCL3_HUMAN (ligand)
chain: SLAADTPTACCFSYTSRQIPQNFIADYFETSSQCSKPGVIFLTKRSRQVCADPSEEWVQKYVSDLELSA
notes: as for B1

What was measured:
P546_AMBCA [1] = target: T1, P546_AMBCA (Amblyomma cajennense, UniProt A0A023FBW7 22-118); test: yeast surface display FACS re-test, >3 fold MFI over control (col D);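 note: yeast displaying putative tick Evasins stained with biotinylated human chemokine plus streptavidin-Alexa647, flow cytometry, positive when MFI exceeds 3-fold the empty-vector or no-chemokine background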
T1 construct: Tick evasin; also called Evasin
T1 sequence: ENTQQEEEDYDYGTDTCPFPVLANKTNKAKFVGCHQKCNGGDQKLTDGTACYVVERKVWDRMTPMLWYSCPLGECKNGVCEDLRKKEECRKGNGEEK

P1243_AMBAM [2] = target: T2, P1243_AMBAM (Amblyomma americanum, UniProt A0A0C9S461 26-123); test: yeast surface display library FACS screen, labelled chemokine (col C: isolated in)
T2 construct: Tick evasin; also called Evasin
T2 sequence: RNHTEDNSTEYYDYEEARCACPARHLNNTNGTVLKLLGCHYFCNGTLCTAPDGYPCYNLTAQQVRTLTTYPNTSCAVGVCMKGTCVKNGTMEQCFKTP

P974_AMBCA = target: T3, P974_AMBCA (Amblyomma cajennense, UniProt A0A023FDY8 22-118); test: as above
T3 construct: Tick evasin; also called Evasin
T3 sequence: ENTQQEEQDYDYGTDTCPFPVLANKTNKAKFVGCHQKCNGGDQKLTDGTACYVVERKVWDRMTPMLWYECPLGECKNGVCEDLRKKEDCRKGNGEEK

P991_AMBCA = target: T4, P991_AMBCA (Amblyomma cajennense, UniProt A0A023FFD0 29-136); test: as above
T4 construct: Tick evasin; also called Evasin
T4 sequence: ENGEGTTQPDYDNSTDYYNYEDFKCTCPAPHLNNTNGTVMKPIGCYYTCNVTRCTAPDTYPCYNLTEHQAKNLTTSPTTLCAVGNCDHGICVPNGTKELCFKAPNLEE

P546_AMBCA [3] = target: T1, P546_AMBCA; test: microscale thermophoresis, AlexaFluor 647 labelled chemokine
P1243_AMBAM [4] = target: T2, P1243_AMBAM; test: yeast surface display FACS re-test, >3 fold MFI over control (col D);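 note: yeast displaying putative tick Evasins stained with biotinylated human chemokine plus streptavidin-Alexa647, flow cytometry, positive when MFI exceeds 3-fold the empty-vector or no-chemokine background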
P467_RHIPU = target: T5, P467_RHIPU (Rhipicephalus pulchellus, UniProt L7M8Z8 22-127); test: yeast surface display library FACS screen, labelled chemokine (col C: isolated in)
T5 construct: Tick evasin; also called Evasin
T5 sequence: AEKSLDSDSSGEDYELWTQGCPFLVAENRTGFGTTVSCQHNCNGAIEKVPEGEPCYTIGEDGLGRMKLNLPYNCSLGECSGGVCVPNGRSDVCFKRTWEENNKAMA

P1181_AMBMA = target: T6, P1181_AMBMA (Amblyomma maculatum, UniProt G3MIX6 26-115); test: as above
T6 construct: Tick evasin; also called Evasin
T6 sequence: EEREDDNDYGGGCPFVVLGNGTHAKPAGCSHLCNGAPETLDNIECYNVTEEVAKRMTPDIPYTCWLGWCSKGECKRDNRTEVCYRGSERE

P1182_AMBMA = target: T7, P1182_AMBMA (Amblyomma maculatum, UniProt G3MJ83 27-115); test: as above
T7 construct: Tick evasin; also called Evasin
T7 sequence: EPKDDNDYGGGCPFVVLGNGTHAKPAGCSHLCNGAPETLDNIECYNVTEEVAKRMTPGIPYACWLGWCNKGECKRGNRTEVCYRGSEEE

CCL5_HUMAN [5] = target: T8, CCL5_HUMAN (human, UniProt P13501 24-91); test: yeast surface display FACS re-test, >3 fold MFI over control (col D);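 note: yeast displaying putative tick Evasins stained with biotinylated human chemokine plus streptavidin-Alexa647, flow cytometry, positive when MFI exceeds 3-fold the empty-vector or no-chemokine background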
T8 construct: Biotinylated (detected with streptavidin-Alexa647) in yeast display; AlexaFluor 647 labelled (Almac) in thermophoresis
T8 sequence: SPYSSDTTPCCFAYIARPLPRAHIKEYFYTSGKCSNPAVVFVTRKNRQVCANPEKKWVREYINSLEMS

CCL19_HUMAN [6] = target: T9, CCL19_HUMAN (human, UniProt Q99731 22-98); test: as above
T9 construct: Biotinylated (detected with streptavidin-Alexa647) in yeast display; AlexaFluor 647 labelled (Almac) in thermophoresis
T9 sequence: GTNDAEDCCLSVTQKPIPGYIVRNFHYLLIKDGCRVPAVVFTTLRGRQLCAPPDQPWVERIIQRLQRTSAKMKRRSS

CCL22_HUMAN = target: T10, CCL22_HUMAN (human, UniProt O00626 25-93); test: as above
T10 construct: Biotinylated (detected with streptavidin-Alexa647) in yeast display; AlexaFluor 647 labelled (Almac) in thermophoresis
T10 sequence: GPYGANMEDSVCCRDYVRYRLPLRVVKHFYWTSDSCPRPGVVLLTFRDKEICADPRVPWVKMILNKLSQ

CCL1_HUMAN = target: T11, CCL1_HUMAN (human, UniProt P22362 24-96); test: yeast surface display library FACS screen, labelled chemokine (col C: isolated in)
T11 construct: Biotinylated (detected with streptavidin-Alexa647) in yeast display; AlexaFluor 647 labelled (Almac) in thermophoresis
T11 sequence: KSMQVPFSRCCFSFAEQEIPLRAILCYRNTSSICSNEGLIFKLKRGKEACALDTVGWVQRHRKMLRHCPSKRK

CCL11_HUMAN = target: T12, CCL11_HUMAN (human, UniProt P51671 24-97); test: as above
T12 construct: Biotinylated (detected with streptavidin-Alexa647) in yeast display; AlexaFluor 647 labelled (Almac) in thermophoresis
T12 sequence (P51671 24-97 limits assumed): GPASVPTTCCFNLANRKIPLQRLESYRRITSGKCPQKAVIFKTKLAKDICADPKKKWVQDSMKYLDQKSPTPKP

CCL25_HUMAN [7] = target: T13, CCL25_HUMAN (human, UniProt O15444 24-150); test: as above
T13 construct: Biotinylated (detected with streptavidin-Alexa647) in yeast display; AlexaFluor 647 labelled (Almac) in thermophoresis
T13 sequence: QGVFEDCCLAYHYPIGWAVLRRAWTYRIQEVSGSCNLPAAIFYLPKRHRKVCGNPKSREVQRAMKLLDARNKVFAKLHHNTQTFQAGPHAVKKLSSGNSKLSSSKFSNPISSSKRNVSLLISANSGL

CXCL8_HUMAN = target: T14, CXCL8_HUMAN (human, UniProt P10145 28-99); test: as above
T14 construct: Biotinylated (detected with streptavidin-Alexa647) in yeast display; AlexaFluor 647 labelled (Almac) in thermophoresis
T14 sequence: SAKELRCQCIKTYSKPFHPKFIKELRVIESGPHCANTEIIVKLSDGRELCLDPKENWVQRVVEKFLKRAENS

CCL8_HUMAN = target: T15, CCL8_HUMAN (human, UniProt P80075 24-99); test: yeast surface display FACS re-test, >3 fold MFI over control (col D);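 note: yeast displaying putative tick Evasins stained with biotinylated human chemokine plus streptavidin-Alexa647, flow cytometry, positive when MFI exceeds 3-fold the empty-vector or no-chemokine background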
T15 construct: Biotinylated (detected with streptavidin-Alexa647) in yeast display; AlexaFluor 647 labelled (Almac) in thermophoresis
T15 sequence: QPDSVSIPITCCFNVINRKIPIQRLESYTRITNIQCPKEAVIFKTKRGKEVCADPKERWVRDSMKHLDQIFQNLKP

CCL17_HUMAN [8] = target: B1; test: as above
CCL18_HUMAN = target: T16, CCL18_HUMAN (human, UniProt P55774 21-89); test: as above
T16 construct: Biotinylated (detected with streptavidin-Alexa647) in yeast display; AlexaFluor 647 labelled (Almac) in thermophoresis
T16 sequence: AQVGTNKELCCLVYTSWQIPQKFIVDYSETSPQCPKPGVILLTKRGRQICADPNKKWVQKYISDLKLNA

CCL20_HUMAN [9] = target: T17, CCL20_HUMAN (human, UniProt P78556 27-96); test: as above
T17 construct: Biotinylated (detected with streptavidin-Alexa647) in yeast display; AlexaFluor 647 labelled (Almac) in thermophoresis
T17 sequence (P78556 27-96 limits assumed): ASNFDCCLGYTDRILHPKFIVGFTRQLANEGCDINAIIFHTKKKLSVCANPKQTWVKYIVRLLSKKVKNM

CCL25_HUMAN [10] = target: T13, CCL25_HUMAN; test: as above
CXCL10_HUMAN [11] = target: T18, CXCL10_HUMAN (human, UniProt P02778 22-98); test: as above
T18 construct: Biotinylated (detected with streptavidin-Alexa647) in yeast display; AlexaFluor 647 labelled (Almac) in thermophoresis
T18 sequence: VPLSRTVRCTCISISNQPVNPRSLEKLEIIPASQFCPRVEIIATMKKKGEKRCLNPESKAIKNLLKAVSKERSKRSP

CCL5_HUMAN [12] = target: T8, CCL5_HUMAN; test: yeast surface display library FACS screen, labelled chemokine (col C: isolated in)
CCL3_HUMAN = target: B2; test: as above
CCL19_HUMAN [13] = target: T9, CCL19_HUMAN; test: as above
CXCL10_HUMAN [14] = target: T18, CXCL10_HUMAN; test: as above
CCL17_HUMAN [15] = target: B1; test: as above
CCL20_HUMAN [16] = target: T17, CCL20_HUMAN; test: as above
CCL4 = target: T19, CCL4 (human, UniProt P13236 24-92); test: yeast surface display FACS re-test, >3 fold MFI over control (col D)
T19 construct: Biotinylated (detected with streptavidin-Alexa647) in yeast display; also called human CCL4
T19 sequence: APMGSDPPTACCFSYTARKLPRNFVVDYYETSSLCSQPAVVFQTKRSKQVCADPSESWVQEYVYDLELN

Q: Does B1 bind (P546_AMBCA [1])?
A: binds

Q: Does B1 bind (P1243_AMBAM [2])?
A: binds

Q: Does B1 bind (P974_AMBCA)?
A: binds

Q: Does B1 bind (P991_AMBCA)?
A: binds

Q: With B2 as the binder, how does the Kd (P546_AMBCA [3]) read?
A: 171 nM

Q: Does B2 bind (P1243_AMBAM [4])?
A: binds

Q: Does B2 bind (P467_RHIPU)?
A: binds

Q: Does B2 bind (P1181_AMBMA)?
A: binds

Q: Does B2 bind (P1182_AMBMA)?
A: binds

B3: P1006_AMBCA (other)
chain: DTIGGIPGCGDPATTSAPEDQPKHYAVRTDKNGCKVMVIGTWMTKEDHNLLPPYISKERAPSGKVQLPASCKKNCHGKLKNLPNGTPCREVFGDLRRRRKHIKDGCKVGKCQNGLCVSEERIISCYLPPNITDPRPTHGPLAE
notes: Tick evasin; also called Evasin
Q: Does B3 bind (CCL5_HUMAN [5])?
A: binds

Q: Does B3 bind (CCL19_HUMAN [6])?
A: binds

Q: Does B3 bind (CCL22_HUMAN)?
A: binds

Q: Does B3 bind (CCL1_HUMAN)?
A: binds

Q: Does B3 bind (CCL11_HUMAN)?
A: binds

Q: Does B3 bind (CCL25_HUMAN [7])?
A: binds

Q: Does B3 bind (CXCL8_HUMAN)?
A: binds

B4: P1209_AMBPA (other)
chain: KTDTKNAAGELPPKVAIPGCEDPATTKAPLPDDPRYYGVTIDKDGCQRKVLGSSQRQQRQVQNGRKPGRKGRGRRPVFVDLKLTVDCKRKCNGTYSQLPDGEPCLVCDGEPYGRHRTIKGGCYQGNCSSGQCHRGERKVNCYIPKNITNNVLNSVNLAE
notes: as for B3
Q: What does the source list for B4?
A: binding result (CCL8_HUMAN): binds; binding result (CCL17_HUMAN [8]): binds; binding result (CCL18_HUMAN): binds; binding result (CCL19_HUMAN [6]): binds; binding result (CCL20_HUMAN [9]): binds; binding result (CCL25_HUMAN [10]): binds; binding result (CXCL10_HUMAN [11]): binds; binding result (CCL1_HUMAN): binds; binding result (CCL5_HUMAN [12]): binds; binding result (CCL11_HUMAN): binds; binding result (CXCL8_HUMAN): binds

B5: P1224_IXORI (other)
chain: SDLCKMEAESSPFKLPQSSLLDAPDEEGCKYQLLFVEAEGPLVVNCTKDCPNGKIRTVVEGELCIAMVKTSSSGEATGLVGSCKRGSCVKKDDPCRTFTLSEEGDDDEEDEEEEEDEEEDEEEDEEEEEEDEEEED
notes: as for B3
Q: Does B5 bind (CCL3_HUMAN)?
A: binds

Q: Does B5 bind (CCL19_HUMAN [13])?
A: binds

Q: Does B5 bind (CXCL10_HUMAN [14])?
A: binds

B6: P993_AMBPA (other)
chain: HRHYDPNEPCLIAGLKTPRDALPAGCRYDCMIKKNQKLRDGLLCLDVPEKVVKRMVNYLNYSCPLGTCRKGICKRKHRNVRCQKYPVFYMSPPK
notes: Tick evasin
Q: Does B6 bind (CCL5_HUMAN [5])?
A: binds

Q: Does B6 bind (CCL1_HUMAN)?
A: binds

Q: Does B6 bind (CCL11_HUMAN)?
A: binds

Q: Does B6 bind (CCL17_HUMAN [15])?
A: binds

Q: Does B6 bind (CCL20_HUMAN [16])?
A: binds

Q: Does B6 bind (CCL25_HUMAN [7])?
A: binds

Q: Does B6 bind (CXCL8_HUMAN)?
A: binds

B7: P1252_AMBAM (other)
chain: RGGAASVPANASIPGCGDAQTTPAAPEDQPKHYVVYRDGNGCEVKIIGTWMTTEDYNCLPDTFRKNRAPHGKVKLPASCKKTCGNAVQNLKDGTPCRKVFGDLGRRRNLIKNGCLVGACQSGLCVSGNRTISCYIPPNSTDTRATPGSFAE
notes: as for B3
Q: Does B7 bind (CCL11_HUMAN)?
A: binds

Q: Does B7 bind (CCL17_HUMAN [15])?
A: binds

Q: Does B7 bind (CCL20_HUMAN [16])?
A: binds

B8: P1014_AMBCA (other)
chain: DIIGGIPGCGDPTTTSAPEVPPKHFAVRTDKDGCTLMIIGTWMTTEDHNRLPPDIGEKRAPYGRVQLPASCKKNCHGKVKNLPNGTPCREVFGDPRRGRKHIKNGCTVGKCQSGLCVTDKRIISCYIPPNITDPIPTHGPWAE
notes: as for B3
Q: Does B8 bind (CCL4)?
A: binds

Q: Does B8 bind (CCL1_HUMAN)?
A: binds

Q: Does B8 bind (CCL11_HUMAN)?
A: binds

Q: Does B8 bind (CCL25_HUMAN [7])?
A: binds
